Experimental data from patent US20250073350A1 (BROAD INSTITUTE, published 2025).

B1: MmPNMA5, bacterially produced (other, mouse, UniProt Q5DTT8 1-618, looked up)
chain: MAVALLDDWCKGMDLDPKKAVLIVGIPVQYTEAAINDALKEGLPPLCAYKVIGRMFRREDEAKAVLIELPEVVDYTMMPTHIPAEGGAWEVVVKPRSPDDEFMNKLIYFLRDEGRRIVDVAKALGFSTVPTGKIELKNLDQDKPKGLKSLCNNSTCYKKLKVFSGSPFPGPGEESFETWLEEVTELMQLWQVSEREKKQCLLESLRGSALSIMQALWTSNDSLTVEQCLKALKHIFGNKEDSKVLQFRFLQSSQKPAEKVSDYLLRLEPLLQKAVQQSPLSAHSADSIRLKHVLSQVSMTTGLRGKLSLLDQQGCPPTFLELMKLTRDEEEWESTVVVEEQEQVRRDSSACEAANEVVTQAEDSREVSTQTTGEEMTSVKRRRLLWRHSAGEEGQRKESGFWAESEPDEQKPYVRAQESGNERGAWAVSHPNPKEIEAQDSQEFLPVAGNRDTLTKSWGSPDKGTGDMSVAEGQQGQGKAPNFLLARNDPNKQEQIPHSSVTTKWQDRGECQRLKWGASMITRPQGNPDRSWDTSGSQDGEDGCSELRMPTGTEAAQGVEEPATGLSWAEDTSAWEQARLGRETVPRRGGRRIQPVFRIIYTALGEPHEGSTLESFRE
notes: also called paraneoplastic antigen-like protein 5
B2: MmMOAP1, bacterially produced (other, mouse, UniProt Q9ERH6 1-352, looked up)
chain: MTLRLLEDWCRGMDMNPRKALLVAGIPPTCGVADIEEALQAGLAPLGEHRLLGRMFRRDENKNVALIGLTVETGSALVPKEIPAKGGVWRVIFKPPDTDSDFLCRLNEFLKGEGMTMGELTRVLGNRNDPLGLDPGIMIPEIRAPMLAQALNEALKPTLQYLRYKKLSVFSGRDPPGPGEEEFESWMFHTSQVMKTWQVSDVEKRRRLIESLRGPAFEIIRVLKINNPFITVAECLKTLETIFGIIDNPRALQVKYLTTYQKTDEKLSAYVLRLEPLLQKLVQKGAIEKEVVNQARLDQVIAGAVHKSVRRELGLPEGSPAPGLLQLLTLIKDKEAEEEEVLLQAELEGYCT
notes: also called modulator of apoptosis 1

Biological target: the molecule itself
Experiment: self-association; size exclusion and electron microscopy of protein produced in E. coli

Row | Protein | binding result
1 | B1 | binds
2 | B2 | binds
